Experimental data taken from patent US20200172582A1 (UNIVERSITY OF FLORIDA RESEARCH FOUNDATION, published 2020).

Tests used:
hFc = biological target: T1, hFc (human, UniProt P01857-1 104-330 = IgG part, limits assumed); experiment: flow cytometry of SlpA-coated beads with hFc fusion proteins
T1 construct: domain: Fc; Fc-only control in the SlpA bead assay; also called human Fc
Description: (§1) FIGS. 5A-5D. L. acidophilus NCK2187 and its SlpA bind to murine SIGNR3 to induce regulatory signals. A. B6 mice were orally gavaged with 10⁹ CFU NCK56 or NCK2187 and the colonic gene expression of C-type lectin receptors were measured by RT-PCR. Each box represents an individual mouse; n=4. Data represent three individual experiments and are shown as mean±SEM. B. Binding of SlpA to various hFc fusion proteins were analyzed by flow cytometry. Gray tinted line=SlpA-coated beads only; orange=SlpA-coated beads+secondary antibody; green=SlpA-coated beads+control fusion protein; blue=SlpA-coated beads+SIGNR1-hFc; red=SlpA-coated beads+SIGNR3-hFc. Binding assays results were confirmed five independent times. C. […] production by colonic DCs of naïve WT B6 GF or Signr3^{-/-} mice treated with NCK56 (blue) or NCK2187 (green) on days 0, 3, 6, and 9, or left untreated (black), as determined by flow cytometry. D. Frequency of colonic FoxP3⁺ Tregs in KO mice treated with NCK56 or NCK2187 was measured by flow cytometry. n=5 mice/group. Data represent four individual experiments and are shown as mean±SEM. *P<0.05. […]
(§2) C-type lectin receptors, SIGNR1 and SIGNR3, were fused to the Fc part of human IgG1 (SIGNR1-hFc and SIGNR3-hFc) as previously described (Eriksson et al., 2013). […] Binding of SlpA-coated beads (Dynabeads MyOne Carboxylic Acid, Life Technologies) to fusion proteins was analyzed by flow cytometry.

[1] = biological target: T2, SIGNR1-hFc (extracellular region of murine SIGNR1 fused to the Fc part of human IgG1) (mouse; human, UniProt Q8CJ91 74-325; P01857 104-330 = IgG part, limits assumed); experiment: as above
T2 construct: extracellular domain;domain: Fc part of human IgG1; Expressed in CHO-S cells
Description: as §1, §2

T2 sequence (Q8CJ91 other isoform, or with tags, fused parts or gaps limits assumed): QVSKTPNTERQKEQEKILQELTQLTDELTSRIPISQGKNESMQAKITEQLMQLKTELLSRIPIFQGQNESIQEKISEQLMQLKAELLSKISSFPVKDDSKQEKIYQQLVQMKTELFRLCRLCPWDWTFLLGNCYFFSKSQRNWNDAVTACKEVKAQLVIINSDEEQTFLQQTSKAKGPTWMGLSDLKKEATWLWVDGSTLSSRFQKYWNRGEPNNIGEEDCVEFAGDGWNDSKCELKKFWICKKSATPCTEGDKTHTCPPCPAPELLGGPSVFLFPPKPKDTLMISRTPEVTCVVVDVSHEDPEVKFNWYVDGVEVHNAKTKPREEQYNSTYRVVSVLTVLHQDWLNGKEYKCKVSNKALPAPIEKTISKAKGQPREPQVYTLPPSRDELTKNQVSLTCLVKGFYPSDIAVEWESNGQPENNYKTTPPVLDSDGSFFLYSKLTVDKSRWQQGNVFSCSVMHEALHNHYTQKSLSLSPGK

binding result (hFc): no binding
binding result [1]: no binding
B1: Lactobacillus acidophilus surface layer protein A (SlpA), purified from strain NCK2187 (other)
chain: AVSTVSAATTINASSSAINTNTNAKYDVDVTPSVSAVAANTANNTPAIAGNLTGTISASYNGKTYTANLKADTENATITAAGSTTAVKPAELAAGVAYTVTVNDVSFNFGSENAGKTVTLGSANSNVKFTGTNSDNQTETNVSTLKVKLDQNGVASLTNVSIANVYAINTTDNSNVNFYDVTSGATVTNGAVSVNADNQGQVNVANVVAAINSKYFAAQYADKKLNTRTANTEDAIKAALKDQKIDVNSVGYFKAPHTFTVNVKATSNTNGKSATLPVVVTVPNVAEPTVASVSKRIMHNAYYYDKDAKRVGTDSVKRYNSVSVLPNTTTINGKTYYQVVENGKAVDKYINAANIDGTKRTLKHNAYVYASSKKRANKVVLKKGEVVTTYGASYTFKNGQKYYKIGDNTDKTYVKVANFR
notes: Native protein extracted from the surface of L. acidophilus NCK2187 with 5 M LiCl or 5 M NaCl (46 kDa band); In the assays it was coated on carboxylated beads or ELISA plates, blotted, or pulsed onto RAW 264.7 cells; also called L. acidophilus-SlpA; purified SlpA
